In doi:10.1101/2021.09.05.459021 (bioRxiv, 2021):
Where “and” joins values, the source holds several entries; their conditions need not be identical. Identical values can stand only once.

What was measured:
EGFP fusion of KCNH1 = EGFP fusion of KCNH1 (UniProt O95259); assay: single-molecule subunit counting
[1] = molecular target: mTTYH3 ECD1-T4L-ECD2 (mouse | bacteriophage T4) (UniProt Q6P5F7); assay: cross-linking
SEC = molecular target: the molecule itself; assay: SEC
native gel or EMSA = molecular target: the molecule itself; assay: native gel or EMSA
[2] = molecular target: the molecule itself; assay: single-molecule subunit counting

EGFP fusion of KCNH1 (from UniProt O95259 1-989) (natural protein)
stoichiometry N (EGFP fusion of KCNH1): 4

mTTYH3 ECD1-T4L-ECD2 (from UniProt Q6P5F7 107-209; Q6P5F7 260-386) (domain or fragment)
stoichiometry N [1]: 4

B1: mTTYH1-EGFP (C-terminal EGFP fusion of mouse TTYH1), expressed in HEK 293 cells (natural protein, UniProt Q9D3A9 1-450, looked up)
chain: MGAPPGYRPSAWVHLLHQLPRADFQLRPVPSGFAPRDQEYQQALLLVAALAGLGLGLSLIFIAVYLIRFCCCRPPEPHGAKSPPPGGGCVTWSCIAALLVGCAGIGIGFYGNSETSDGVSQLSSALLHANHTLSTIDDVVLETVERLGEAVKTELTTLEEVLSVRMELVAATRGARRQAEAAAQYLQGLAFWQGVSLSPVQVAEDVTFVEEYRWLAYVLLLLLVLLVCLFTLLGLAKQSKWLVVVMTAMSLLVLVLSWGSMGLEAATAVGLSDFCSNPDTYVLNLTQEETGLSSDILSYYFLCNQAVSNPFQQRLTLSQRALASIHSQLQGLEREAIPQFSAAQKPLLSLEETLNVTERSFHQLVALLHCRSLHKDYGSALRGLCEDALEGLLFLMLFSLLSAGALATTLCSLPRAWALFPPSDDYDDTDDDDPFNPQESKRFVQWQSSI
stoichiometry N (SEC): 4 and 2

B2: FLAG-tagged mouse TTYH1 (mTTYH1) (natural protein, UniProt Q9D3A9 1-450, looked up)
chain: MGAPPGYRPSAWVHLLHQLPRADFQLRPVPSGFAPRDQEYQQALLLVAALAGLGLGLSLIFIAVYLIRFCCCRPPEPHGAKSPPPGGGCVTWSCIAALLVGCAGIGIGFYGNSETSDGVSQLSSALLHANHTLSTIDDVVLETVERLGEAVKTELTTLEEVLSVRMELVAATRGARRQAEAAAQYLQGLAFWQGVSLSPVQVAEDVTFVEEYRWLAYVLLLLLVLLVCLFTLLGLAKQSKWLVVVMTAMSLLVLVLSWGSMGLEAATAVGLSDFCSNPDTYVLNLTQEETGLSSDILSYYFLCNQAVSNPFQQRLTLSQRALASIHSQLQGLEREAIPQFSAAQKPLLSLEETLNVTERSFHQLVALLHCRSLHKDYGSALRGLCEDALEGLLFLMLFSLLSAGALATTLCSLPRAWALFPPSDDYDDTDDDDPFNPQESKRFVQWQSSI
stoichiometry N (native gel or EMSA): 2 and 4

B3: mTTYH1-EGFP (C-terminal EGFP fusion of mouse TTYH1), expressed in Xenopus oocytes (natural protein, UniProt Q9D3A9 1-450, looked up)
chain: MGAPPGYRPSAWVHLLHQLPRADFQLRPVPSGFAPRDQEYQQALLLVAALAGLGLGLSLIFIAVYLIRFCCCRPPEPHGAKSPPPGGGCVTWSCIAALLVGCAGIGIGFYGNSETSDGVSQLSSALLHANHTLSTIDDVVLETVERLGEAVKTELTTLEEVLSVRMELVAATRGARRQAEAAAQYLQGLAFWQGVSLSPVQVAEDVTFVEEYRWLAYVLLLLLVLLVCLFTLLGLAKQSKWLVVVMTAMSLLVLVLSWGSMGLEAATAVGLSDFCSNPDTYVLNLTQEETGLSSDILSYYFLCNQAVSNPFQQRLTLSQRALASIHSQLQGLEREAIPQFSAAQKPLLSLEETLNVTERSFHQLVALLHCRSLHKDYGSALRGLCEDALEGLLFLMLFSLLSAGALATTLCSLPRAWALFPPSDDYDDTDDDDPFNPQESKRFVQWQSSI
stoichiometry N [2]: 4

B4: mTTYH3-EGFP (C-terminal EGFP fusion of mouse TTYH3), expressed in HEK 293 cells (natural protein, UniProt Q6P5F7 1-524, looked up)
chain: MAGVSYAAPWWVSLLHRLPHFDLRWEATSSQFRPEDADYQQALLLLGATALACLALDLLFLLFYSFWLCCRRRKTDEHLDADCCCTAWCVIITTLVCSAGIAVGFYGNGETSDGIHRATYSLRHANRTVAGVQDRVWDTAAALNRTAEPNLQSLERQLAGRQEPLRAVQRLQTLLGTLLGYTAAIPFWRNPGVSLEVLAEQVDLYDWYRWLGYLGLLLLDVIICLLVLVGLIRSSKGILVGVCLLGVLALVISWGALGLELAVSVGSSDFCVDPDTFVTKMVEEHSVLSGDILQYYLACSPRATNPFQQKLSGSHKALVEMQDVVAELLRNVPREHPATKDPLLRVQEVLNGTEVNLQHLTALVDCRSLHLDYVQALTGFCYDGVEGLIYLALFSFVTALMFSSIVCSIPHTWQQKRGPDDDGEEETAPGPRQAHDSLYRVHMPSLYSCGSSYGSEASIPAAAHTVSNAPVTEYMSQNANFQNPRCENTPLIGRESPPPSYTSSMRAKYLATSQPRPDSSGSGH
ratio of tetramers to dimers (SEC): ~1.5
stoichiometry N (SEC): 4 and 2

B5: FLAG-tagged mouse TTYH3 (mTTYH3) (natural protein, UniProt Q6P5F7 1-524, looked up)
chain: MAGVSYAAPWWVSLLHRLPHFDLRWEATSSQFRPEDADYQQALLLLGATALACLALDLLFLLFYSFWLCCRRRKTDEHLDADCCCTAWCVIITTLVCSAGIAVGFYGNGETSDGIHRATYSLRHANRTVAGVQDRVWDTAAALNRTAEPNLQSLERQLAGRQEPLRAVQRLQTLLGTLLGYTAAIPFWRNPGVSLEVLAEQVDLYDWYRWLGYLGLLLLDVIICLLVLVGLIRSSKGILVGVCLLGVLALVISWGALGLELAVSVGSSDFCVDPDTFVTKMVEEHSVLSGDILQYYLACSPRATNPFQQKLSGSHKALVEMQDVVAELLRNVPREHPATKDPLLRVQEVLNGTEVNLQHLTALVDCRSLHLDYVQALTGFCYDGVEGLIYLALFSFVTALMFSSIVCSIPHTWQQKRGPDDDGEEETAPGPRQAHDSLYRVHMPSLYSCGSSYGSEASIPAAAHTVSNAPVTEYMSQNANFQNPRCENTPLIGRESPPPSYTSSMRAKYLATSQPRPDSSGSGH
stoichiometry N (native gel or EMSA): 2 and 4

B6: mTTYH3-EGFP (C-terminal EGFP fusion of mouse TTYH3), expressed in Xenopus oocytes (natural protein, UniProt Q6P5F7 1-524, looked up)
chain: MAGVSYAAPWWVSLLHRLPHFDLRWEATSSQFRPEDADYQQALLLLGATALACLALDLLFLLFYSFWLCCRRRKTDEHLDADCCCTAWCVIITTLVCSAGIAVGFYGNGETSDGIHRATYSLRHANRTVAGVQDRVWDTAAALNRTAEPNLQSLERQLAGRQEPLRAVQRLQTLLGTLLGYTAAIPFWRNPGVSLEVLAEQVDLYDWYRWLGYLGLLLLDVIICLLVLVGLIRSSKGILVGVCLLGVLALVISWGALGLELAVSVGSSDFCVDPDTFVTKMVEEHSVLSGDILQYYLACSPRATNPFQQKLSGSHKALVEMQDVVAELLRNVPREHPATKDPLLRVQEVLNGTEVNLQHLTALVDCRSLHLDYVQALTGFCYDGVEGLIYLALFSFVTALMFSSIVCSIPHTWQQKRGPDDDGEEETAPGPRQAHDSLYRVHMPSLYSCGSSYGSEASIPAAAHTVSNAPVTEYMSQNANFQNPRCENTPLIGRESPPPSYTSSMRAKYLATSQPRPDSSGSGH
stoichiometry N [2]: 4
